This note sets out measurements from US20120178697A9.

pKd: −log10 of the molar value.

The target of the assay is PDZ domain (residues 247 through 341) of mouse Dvl-1 (mouse) (UniProt P51141). Briefly: method not stated; called 'experimental data', at 25° C.

Regarding Dapper peptide, the pKd is 5.00.

By pKd is commonly meant −log10 of the Kd, conventionally taken in molar units. A high value points to a low Kd.
